Like-named read-outs stand apart in the source and are kept apart here.
What was measured:
Experiment in all cases: ELISA, plate coated with CNTN4-10xHis, anti-human Fc-HRP
human CNTN4-10xHis [1] = biological target: T1, human CNTN4-10xHis (human, UniProt Q8IWV2 19-1000)
T1 sequence: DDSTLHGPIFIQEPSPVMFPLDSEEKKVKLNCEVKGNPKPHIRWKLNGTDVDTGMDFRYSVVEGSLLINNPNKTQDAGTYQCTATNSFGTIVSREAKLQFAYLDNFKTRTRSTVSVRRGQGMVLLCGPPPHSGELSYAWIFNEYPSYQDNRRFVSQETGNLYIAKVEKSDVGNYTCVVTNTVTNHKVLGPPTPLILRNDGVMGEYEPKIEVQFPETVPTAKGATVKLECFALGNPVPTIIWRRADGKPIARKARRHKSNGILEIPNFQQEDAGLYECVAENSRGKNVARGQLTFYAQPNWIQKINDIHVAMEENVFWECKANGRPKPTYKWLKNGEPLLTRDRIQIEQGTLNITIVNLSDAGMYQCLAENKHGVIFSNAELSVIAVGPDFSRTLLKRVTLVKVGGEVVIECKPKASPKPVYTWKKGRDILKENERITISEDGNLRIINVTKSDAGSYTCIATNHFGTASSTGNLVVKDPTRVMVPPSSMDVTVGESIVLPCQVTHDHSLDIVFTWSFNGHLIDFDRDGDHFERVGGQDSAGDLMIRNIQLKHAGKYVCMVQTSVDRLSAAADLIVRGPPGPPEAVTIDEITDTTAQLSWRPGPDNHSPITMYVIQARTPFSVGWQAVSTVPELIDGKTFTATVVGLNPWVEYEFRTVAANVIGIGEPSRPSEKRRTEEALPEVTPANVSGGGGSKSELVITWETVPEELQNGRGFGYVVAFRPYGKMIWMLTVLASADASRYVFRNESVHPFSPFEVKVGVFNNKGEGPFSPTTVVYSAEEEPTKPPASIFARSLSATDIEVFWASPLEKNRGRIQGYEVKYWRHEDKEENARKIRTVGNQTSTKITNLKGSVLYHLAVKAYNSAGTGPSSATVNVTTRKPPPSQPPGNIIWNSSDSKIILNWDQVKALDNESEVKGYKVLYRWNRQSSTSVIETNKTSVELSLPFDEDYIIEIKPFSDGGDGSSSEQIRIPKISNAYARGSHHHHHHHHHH
Description: (§1) An ELISA test was performed on A-01 prepared in Example 2.1. An ELISA plate was coated with 200 ng of antigens (human CNTN4-10xHis or mouse CNTN4-10xHis). For antibody binding, A-01 was serially diluted from a maximum of 1 μM to 0.0001 nM, thereby binding to the antigen. Anti-human Fc-HRP was used as a secondary antibody for antibody detection. Color was developed using ABTS, which is a color developing reagent, and the absorbance at 405 nm was measured.

mouse CNTN4-10xHis [2] = biological target: T2, mouse CNTN4-10xHis (mouse, UniProt Q69Z26 19-1000)
T2 sequence: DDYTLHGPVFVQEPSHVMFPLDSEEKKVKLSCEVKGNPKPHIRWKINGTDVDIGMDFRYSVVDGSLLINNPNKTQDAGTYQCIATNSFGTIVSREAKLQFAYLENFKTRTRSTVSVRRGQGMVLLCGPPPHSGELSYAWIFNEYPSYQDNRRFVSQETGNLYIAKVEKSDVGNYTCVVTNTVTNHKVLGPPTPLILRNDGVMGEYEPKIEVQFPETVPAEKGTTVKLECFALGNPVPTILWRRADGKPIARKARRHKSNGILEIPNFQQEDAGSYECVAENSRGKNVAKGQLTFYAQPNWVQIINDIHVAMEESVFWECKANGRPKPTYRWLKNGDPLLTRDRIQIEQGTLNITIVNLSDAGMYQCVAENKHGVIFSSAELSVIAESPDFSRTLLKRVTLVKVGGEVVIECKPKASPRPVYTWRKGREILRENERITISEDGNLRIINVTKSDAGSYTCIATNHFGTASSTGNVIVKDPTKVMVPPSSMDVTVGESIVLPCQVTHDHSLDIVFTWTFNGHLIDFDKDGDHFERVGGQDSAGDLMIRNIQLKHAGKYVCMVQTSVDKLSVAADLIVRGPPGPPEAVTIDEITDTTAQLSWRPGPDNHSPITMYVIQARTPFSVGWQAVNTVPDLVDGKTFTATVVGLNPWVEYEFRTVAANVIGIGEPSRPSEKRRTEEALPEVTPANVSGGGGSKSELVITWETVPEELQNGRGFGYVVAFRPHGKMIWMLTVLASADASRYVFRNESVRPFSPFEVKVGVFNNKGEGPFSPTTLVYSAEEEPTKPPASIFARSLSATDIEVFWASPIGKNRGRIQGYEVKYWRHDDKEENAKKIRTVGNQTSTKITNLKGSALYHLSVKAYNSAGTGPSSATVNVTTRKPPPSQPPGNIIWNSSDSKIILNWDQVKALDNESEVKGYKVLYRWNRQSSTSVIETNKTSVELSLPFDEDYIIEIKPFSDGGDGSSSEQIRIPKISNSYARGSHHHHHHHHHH
Description: as §1

human CNTN4-10xHis [3] = biological target: T1, human CNTN4-10xHis; remark: listed apart in the source
Description: (§2) The LAH2, L1H2, and L2H2 antibodies prepared in Example 3.1 were subjected to an ELISA test together with A-01. An ELISA plate was coated with 200 ng of antigens (human CNTN4-10xHis or mouse CNTN4-10xHis). For antibody binding, antibodies were serially diluted from a maximum of 1 μM to 0.0001 nM, thereby binding to the antigen. Anti-human Fc-HRP was used as a secondary antibody for antibody detection. Color was developed using ABTS, which is a color developing reagent, and the absorbance at 405 nm was measured.

mouse CNTN4-10xHis [4] = biological target: T2, mouse CNTN4-10xHis; remark: listed apart in the source
Description: as §2

Measured: EC50

B1: anti-CNTN4 129 chimeric IgG4-S228P (antibody, V domains shown)
VH: AVTLDESEGGLQTPGGALSLVCKASGFTFSSFNMFWVRQAPGKGLEYVAEISGGGGSTWYAPAVKGRATISRDNGQSTVRLQLNNLRAEDTGTYYCAKSADTWSYGAATIDAWGHGTEVIVSS
VL: ALTQPSSVSANLGETVKITCSGSSGSYGWYQQKSPGSAPVTLIYDNTNRPSDIPSRFSGSGSGSTGTLTITGVRAEDEAVYYCGGYDGSTDVFGAGTTLTVL
notes: chicken-human chimeric IgG4-S228P made from S129, kappa light chain constant region (Kappa select); also called A-01; LAHA
0.011 nM: all assays above

From patent US20240182563A1 (GENOME, published 2024)
